The results in this text go back to the supplement of paper PMC10567573.

B1: MATN2 (parent)
chain: VNVPGSFVCQCYSGYALAEDGKRC
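Also: lentivirally expressed fusions sorted by FACS into six bins by GFP to DsRed ratio, PSI derived from sequencing read proportions per bin multiplied by bin number.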

The variants in the data set derive from B1. Briefly: protein stability index of a GFP-peptide fusion (GPS, HEK-293T) (PSI 1-6); higher = more stable. The settings on record: c terminus: a fixed tail appended.
Turning to VNVLGSFVCQCYSGYALAEDGKRC [P4L], the protein stability index came to 1.99. VNVGGSFVCQCYSGYALAEDGKRC [P4G]: the protein stability index was found to be 1.86. Turning to VNVMGSFVCQCYSGYALAEDGKRC [P4M], the protein stability index amounted to 2.1. For VNVNGSFVCQCYSGYALAEDGKRC [P4N], the protein stability index was 1.94. Turning to VNVPGSFVCQCYSGTALAEDGKRC [Y15T], the protein stability index was 2.33.

As to VNVPGSFVCQCYSGDALAEDGKRC [Y15D], the protein stability index was determined as 2.03. For the variant VNVPGSFVCQCYSGIALAEDGKRC [Y15I], the protein stability index is 2.23. VNVPGSFVCQCYSGFALAEDGKRC [Y15F]: the protein stability index stood at 2.38. As for VNVPQSFVCQCYSGYALAEDGKRC [G5Q], the protein stability index came to 2.14. VNVPPSFVCQCYSGYALAEDGKRC [G5P]: the protein stability index came out at 2.31. The same measure for VNVPTSFVCQCYSGYALAEDGKRC [G5T]: 1.87; for VNVPASFVCQCYSGYALAEDGKRC [G5A]: 1.67; for VNVPMSFVCQCYSGYALAEDGKRC [G5M]: 1.47. VNVPLSFVCQCYSGYALAEDGKRC [G5L]: the protein stability index amounted to 1.06.

As for VNVPNSFVCQCYSGYALAEDGKRC [G5N], the protein stability index was 1.75. VNVPGSFVCQCYSGYALAEDGKRF [C24F]: the protein stability index was 1.83. The same measure for VNVPGSFVCQCYSGYALAEDGKRM [C24M]: 2.06. With VNVPGSFVCQCYSGYALAEDGKRY [C24Y], the protein stability index came out at 2.41. Take VNVPGSFVCQCYSGYALAEDGKRR [C24R]: the protein stability index worked out at 1.25. On to VNVPGSFVCQCYSGYALAEDGKRI [C24I], for which the protein stability index is 2.22. The same measure for VNVPGSFVCQCYSGYALAEDGKRD [C24D]: 2.32; for VNVPGSFVCQCYSGYALAEDGKRT [C24T]: 2.13. On to VNVPGSFVCQCYSGYALAEDGKRQ [C24Q], for which the protein stability index is 2.12. Turning to VNVPGSFVCQCYSGYALAEDGKRH [C24H], the protein stability index was found to be 2.9. With VNVPGSFVCQCYSGYALAEDGKRE [C24E] the figure was 1.94; with VNVPGSFVCQCYSGYASAEDGKRC [L17S], 1.57; with VNVPGSFVCQCYSGYAKAEDGKRC [L17K], 1.81. Take VNVPGSFVCQCYSGYAPAEDGKRC [L17P]: the protein stability index worked out at 2.46. Turning to VNVPGRFVCQCYSGYALAEDGKRC [S6R], the protein stability index was 3.39.

With VNVPGTFVCQCYSGYALAEDGKRC [S6T], the protein stability index is 2.12.

Consider VNVPGEFVCQCYSGYALAEDGKRC [S6E], for which the protein stability index was 2.67. Take VNVPGYFVCQCYSGYALAEDGKRC [S6Y]: the protein stability index was 1.87. Take VNVPGGFVCQCYSGYALAEDGKRC [S6G]: the protein stability index was 1.47. With VNVPGWFVCQCYSGYALAEDGKRC [S6W], the protein stability index worked out at 2.04.

As for VNVPGHFVCQCYSGYALAEDGKRC [S6H], the protein stability index stood at 2.27. For the variant VNVPGCFVCQCYSGYALAEDGKRC [S6C], the protein stability index worked out at 2.05. Consider VNVPGDFVCQCYSGYALAEDGKRC [S6D], for which the protein stability index came out at 2.97.

On to VNVPGKFVCQCYSGYALAEDGKRC [S6K], for which the protein stability index turned out to be 1.89. Take VNVPGSFVCQCYSGYALAEDGIRC [K22I]: the protein stability index is 1.5. With VNVPGSFVCQCYSGYALAEDGPRC [K22P] the figure was 2.08.

As to VNVPGSFVCQCYSGYALAEDGFRC [K22F], the protein stability index came out at 1.81. On to VNVPGSFVCQCYSGYALAEDGHRC [K22H], for which the protein stability index amounted to 2.68. Regarding VNVPGSFVCQCYSGYWLAEDGKRC [A16W], the protein stability index worked out at 1.05. With VNVPGSFVCQCNSGYALAEDGKRC [Y12N] the figure was 1.98; with VNVPGSFVCQCDSGYALAEDGKRC [Y12D], 4.36; with VNVPGSFVCQCHSGYALAEDGKRC [Y12H], 2.24. The same measure for VNVPGSFVCQCRSGYALAEDGKRC [Y12R]: 2; for VNVPGSFVCQCWSGYALAEDGKRC [Y12W]: 2.62. Consider VNVPGSFVCQPYSGYALAEDGKRC [C11P], for which the protein stability index is 2.42. VNVPGSFVCQTYSGYALAEDGKRC [C11T]: the protein stability index worked out at 2.43. With VNVPGSFVCQVYSGYALAEDGKRC [C11V], the protein stability index stood at 1.7.

In the case of VNVPGSFVCQAYSGYALAEDGKRC [C11A], the protein stability index was determined as 3.12. Consider VNVPGSFVCQHYSGYALAEDGKRC [C11H], for which the protein stability index was 2.65. For the variant VNVPGSFVCQQYSGYALAEDGKRC [C11Q], the protein stability index amounted to 2.94.

On to VNVPGSAVCQCYSGYALAEDGKRC [F7A], for which the protein stability index came to 2.85.

On to VNVPGSVVCQCYSGYALAEDGKRC [F7V], for which the protein stability index amounted to 2.19. For VNVPGSGVCQCYSGYALAEDGKRC [F7G], the protein stability index turned out to be 3.34. On to VNVPGSMVCQCYSGYALAEDGKRC [F7M], for which the protein stability index was 2.7. Turning to VNVPGSDVCQCYSGYALAEDGKRC [F7D], the protein stability index is 2.56.

With VNVPGSSVCQCYSGYALAEDGKRC [F7S], the protein stability index worked out at 2.62. The same measure for VNVPGSWVCQCYSGYALAEDGKRC [F7W]: 2.48; for VDVPGSFVCQCYSGYALAEDGKRC [N2D]: 2.19. As to VPVPGSFVCQCYSGYALAEDGKRC [N2P], the protein stability index is 2.75. The same measure for VHVPGSFVCQCYSGYALAEDGKRC [N2H]: 1.97; for VKVPGSFVCQCYSGYALAEDGKRC [N2K]: 1.38. Consider VYVPGSFVCQCYSGYALAEDGKRC [N2Y], for which the protein stability index worked out at 1.41. Consider VLVPGSFVCQCYSGYALAEDGKRC [N2L], for which the protein stability index was 2.28.

As to VMVPGSFVCQCYSGYALAEDGKRC [N2M], the protein stability index came to 1.71.

VEVPGSFVCQCYSGYALAEDGKRC [N2E]: the protein stability index was 3.38. As for VCVPGSFVCQCYSGYALAEDGKRC [N2C], the protein stability index worked out at 2.12. In the case of VNVPGSFVCQCYSKYALAEDGKRC [G14K], the protein stability index turned out to be 2.7.

VNVPGSFVCQCYSRYALAEDGKRC [G14R]: the protein stability index came out at 2.81. On to VNVPGSFVCQCYSEYALAEDGKRC [G14E], for which the protein stability index worked out at 2.91. VNVPGSFVCQCYSDYALAEDGKRC [G14D]: the protein stability index came out at 1.95.

Regarding VNVPGSFVCQCYSMYALAEDGKRC [G14M], the protein stability index turned out to be 2.52.

In the case of VNVPGSFVCQCYSLYALAEDGKRC [G14L], the protein stability index turned out to be 3.03.

Regarding VNVPGSFVCQCYSYYALAEDGKRC [G14Y], the protein stability index is 1.86. Regarding VNVPGSFVCQCYSAYALAEDGKRC [G14A], the protein stability index was 2.37. As to VNVPGSFVCQCYSNYALAEDGKRC [G14N], the protein stability index is 1.56. Turning to VNVPGSFVCQCYSPYALAEDGKRC [G14P], the protein stability index is 1.78. The same measure for VNVPGSFVCQCYSQYALAEDGKRC [G14Q]: 1.83; for VNVPGSFVCQCYSSYALAEDGKRC [G14S]: 2.44.

With VNVPGSFVCQCYSGYALAEDGKVC [R23V], the protein stability index worked out at 2.41. Take VNVPGSFVCQCYSGYALAEDGKPC [R23P]: the protein stability index came out at 2.07.

In the case of VNVPGSFVCQCYSGYALAEDGKWC [R23W], the protein stability index came out at 1.64. With VNVPGSFVCQCYSGYALAEDGKIC [R23I], the protein stability index stood at 1.67.

Consider VNVPGSFVCQCYSGYALAEDGKAC [R23A], for which the protein stability index amounted to 2.16. Turning to VNVPGSFVCQCYSGYALAEDGKYC [R23Y], the protein stability index is 1.83. With VNVPGSFVCQCYSGYALAEDGKMC [R23M] the figure was 2.32; with VNVPGSFVCQCYSGYALAGDGKRC [E19G], 2.83; with VNVPGSFVCQCYSGYALADDGKRC [E19D], 1.76. For the variant VNVPGSFVCQCYSGYALAHDGKRC [E19H], the protein stability index was 3.03.

VNVPGSFVCQCYSGYALANDGKRC [E19N]: the protein stability index turned out to be 2.79. With VNVPGSFVCQCYSGYALAIDGKRC [E19I] the figure was 2.77.
